Results published in patent US20260174833A1.

Legend:
[1] = target: TGFβ1 (R&D systems) (UniProt P01137); assay: cell-based or functional assay
[2] = target: IL2Rβ and common γ chain on 32Dβ cells; assay: cell-based or functional assay

UniProt P01137, sequence (P01137 279-390 limits assumed): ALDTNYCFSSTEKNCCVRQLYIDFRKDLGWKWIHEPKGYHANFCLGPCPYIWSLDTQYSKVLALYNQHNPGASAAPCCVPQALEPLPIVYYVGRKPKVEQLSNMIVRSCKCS

| IC50, inhibition of TGFβ1 activity in HEK-Blue TGFβ cells (QUANTI-Blue OD 620-655 nM) [1] | EC50, 32Dβ cell proliferation (WST1, absorbance at 450 nM) [2] | Substance |
| --- | --- | --- |
| 461 pM |  | TGFR-Fc (R&D Systems) (from UniProt P37173 24-159) (Fc fusion) |
|  | 10.6 pM | recombinant IL-15 (from UniProt P40933 49-162) (ligand) |
